Experimental data published in PMC4046795.

Target: recombinant human EGFR/ErbB1 Fc chimera (rhEGFR) (human, UniProt P00533 25-645)
Experiment: SPR

B1: E07 anti-EGFR aptamer (structured_RNA)
RNA: GGCGCUCCGACCUUAGUCUCUGUGCCGCUAUAAUGCACGGAUUUAAUCGCCGUAGAAAAGCAUGUCAAAGCCGGAACCGUGUAGCACAGCAGAGAAUUAAAUGCCCGCCAUGACCAG
modifications: 2'-fluoropyrimidine
In the case of B1, the Kd is reported as 112 nM.
